Experiments:
Experiment in all cases: cell-based or functional assay
[1] = molecular target: HIV Env of isolate DU123.06 (HIV)
[2] = molecular target: Env of HIV isolate DU156.12 (clade C) (HIV)
[3] = molecular target: HIV Env of isolate MB201.A1 (HIV)
[4] = molecular target: Env of HIV isolate 269-12 (clade AG) (HIV)
[5] = molecular target: HIV Env of isolate 7165.18 (HIV)
[6] = molecular target: Env of HIV isolate JRCSF.JB (clade B) (HIV)
[7] = molecular target: HIV Env of isolate ZM214.15 (HIV)
[8] = molecular target: Env of HIV isolate 0013095-2.11 (clade C) (HIV)
[9] = molecular target: HIV Env of isolate CNE40 (HIV)
[10] = molecular target: Env of HIV isolate 3365.v2.c20 (clade A) (HIV)
[11] = molecular target: HIV Env of isolate T266-60 (HIV)
[12] = molecular target: HIV Env of isolate ZM109.4 (HIV)
[13] = molecular target: Env of HIV isolate BI369.9A (clade A) (HIV)
[14] = molecular target: Env of HIV isolate THRO.18 (clade B) (HIV)
[15] = molecular target: Env of HIV isolate ZM249.1 (clade C) (HIV)
[16] = molecular target: HIV Env of isolate X1632.S2.B10 (HIV)
[17] = molecular target: Env of HIV isolate CNE3 (clade AE) (HIV)
[18] = molecular target: HIV Env of isolate BJOX009000.02.4 (HIV)
Envelope of SVA.MLV = molecular target: Envelope of SVA.MLV
[19] = molecular target: HIV Env of isolate CNE56 (HIV)
[20] = molecular target: Env of HIV isolate CE703010217.B6 (clade C) (HIV)
[21] = molecular target: HIV Env of isolate WITO.33 (HIV)
[22] = molecular target: HIV Env of isolate X1254.c3 (HIV)
[23] = molecular target: HIV Env of isolate 6631.v3.c10 (HIV)
[24] = molecular target: HIV Env of isolate BR07.DG (HIV)
[25] = molecular target: Env of HIV isolate UG037.8 (clade A) (HIV)
[26] = molecular target: Env of HIV isolate CNE4 (clade B) (HIV)
[27] = molecular target: Env of HIV isolate CNE59 (clade AE) (HIV)
[28] = molecular target: Env of HIV isolate T253-11 (clade AG) (HIV)
[29] = molecular target: Env of HIV isolate CNE55 (clade AE) (HIV)
[30] = molecular target: Env of HIV isolate BG505.W6M.C2 (clade A) (HIV)
[31] = molecular target: HIV Env of isolate CNE5 (HIV)
[32] = molecular target: HIV Env of isolate Q259.17 (HIV)
[33] = molecular target: Env of HIV isolate 96ZM651.02 (clade C) (HIV)
[34] = molecular target: Env of HIV isolate DU151.02 (clade C) (HIV)
[35] = molecular target: Env of HIV isolate DJ263.8 (clade AG) (HIV)
[36] = molecular target: Env of HIV isolate 3637.v5.c3 (clade C) (HIV)
[37] = molecular target: HIV Env of isolate CH070.1 (HIV)
[38] = molecular target: Env of HIV isolate CNE53 (clade C in Table 7) (HIV)
[39] = molecular target: HIV Env of isolate TZA125.17 (HIV)
[40] = molecular target: HIV Env of isolate KER2018.11 (HIV)
[41] = molecular target: Env of HIV isolate 6471.v1.c16 (clade C) (HIV)
[42] = molecular target: HIV Env of isolate 3365.v2.c20 (HIV)
[43] = molecular target: HIV Env of isolate BJOX025000.01.1 (HIV)
[44] = molecular target: Env of HIV isolate CH070.1 (clade BC) (HIV)
[45] = molecular target: HIV Env of isolate Q168.a2 (HIV)
[46] = molecular target: Env of HIV isolate 25710-2.43 (clade C) (HIV)
[47] = molecular target: Env of HIV isolate 6540.v4.c1 (clade AC) (HIV)
[48] = molecular target: HIV Env of isolate DU151.02 (HIV)
[49] = molecular target: Env of HIV isolate CAP45.G3 (clade C) (HIV)
[50] = molecular target: Env of HIV isolate R2184.c4 (clade AE) (HIV)
[51] = molecular target: Env of HIV isolate X2131.C1.B5 (clade G) (HIV)
[52] = molecular target: HIV Env of isolate 246-F3.C10.2 (HIV)

Substance: PGT121 (antibody)
- IC80, pseudovirus neutralization [1]: 0.135 µg/mL
- IC50, pseudovirus neutralization [2]: 0.0147 µg/mL
- IC80 [3]: 0.0283 µg/mL
- IC50, pseudovirus neutralization [4]: 0.128 µg/mL
- IC80 [5]: 0.103 µg/mL
- IC50, pseudovirus neutralization [6]: 0.0563 µg/mL
- IC80, pseudovirus neutralization [7]: 1.57 µg/mL
- IC50, pseudovirus neutralization [8]: > 50 µg/mL
- IC80, pseudovirus neutralization [9]: 1.21 µg/mL
- IC50, pseudovirus neutralization [10]: 0.112 µg/mL
- IC80 [11]: 0.548 µg/mL
- IC80, pseudovirus neutralization [12]: > 50 µg/mL
- IC50, pseudovirus neutralization [13]: 0.0283 µg/mL
- IC50, pseudovirus neutralization [14]: > 50 µg/mL
- IC50, pseudovirus neutralization [15]: > 50 µg/mL
- IC80, pseudovirus neutralization [16]: > 50 µg/mL
- IC50, pseudovirus neutralization [17]: > 50 µg/mL
- IC80 [18]: 9.02 µg/mL
- IC80, pseudovirus neutralization (Envelope of SVA.MLV): > 50 µg/mL
- IC80 [19]: > 50 µg/mL
- IC50, pseudovirus neutralization [20]: 0.007 µg/mL
- IC80 [21]: 2.02 µg/mL
- IC80, pseudovirus neutralization [22]: 0.106 µg/mL
- IC80, pseudovirus neutralization [23]: > 50 µg/mL
- IC80 [24]: 0.596 µg/mL
- IC50, pseudovirus neutralization [25]: 0.092 µg/mL
- IC50, pseudovirus neutralization [26]: 1.9 µg/mL
- IC50, pseudovirus neutralization [27]: > 50 µg/mL
- IC50, pseudovirus neutralization [28]: > 50 µg/mL
- IC50, pseudovirus neutralization [29]: > 50 µg/mL
- IC50, pseudovirus neutralization [30]: 0.0513 µg/mL
- IC80 [31]: > 50 µg/mL
- IC80 [32]: > 50 µg/mL
- IC50, pseudovirus neutralization [33]: 0.0213 µg/mL
- IC50, pseudovirus neutralization [34]: 0.0117 µg/mL
- IC50, pseudovirus neutralization [35]: 0.0577 µg/mL
- IC50, pseudovirus neutralization [36]: > 50 µg/mL
- IC80, pseudovirus neutralization [37]: 0.0423 µg/mL
- IC50, pseudovirus neutralization [38]: 0.0263 µg/mL
- IC80, pseudovirus neutralization [39]: 9.43 µg/mL
- IC80 [40]: > 50 µg/mL
- IC50, pseudovirus neutralization [41]: > 50 µg/mL
- IC80 [42]: 0.639 µg/mL
- IC80 [43]: > 50 µg/mL
- IC50, pseudovirus neutralization [44]: 0.0137 µg/mL
- IC80 [45]: > 50 µg/mL
- IC50, pseudovirus neutralization [46]: 0.0227 µg/mL
- IC50, pseudovirus neutralization [47]: > 50 µg/mL
- IC80, pseudovirus neutralization [48]: 0.0283 µg/mL
- IC50, pseudovirus neutralization [49]: 0.866 µg/mL
- IC50, pseudovirus neutralization [50]: > 50 µg/mL
- IC50, pseudovirus neutralization [51]: 0.013 µg/mL
- IC80 [52]: > 50 µg/mL

Reference: US20210292396A1
